# Source: patent publication US7927849B2, “Laccase enzyme and use thereof” (AB Enzymes OY, priority 2004, dated 2011)
# B1: TaLcc1: Recombinant Thielavia arenaria ALKO4197 laccase 1 (SEQ ID NO: 12) produced in Trichoderma reesei strains RF5597/RF5598 (protein)
# chain: MKSWAAAVALMVGILSPHAAAAPPANPVQRDMLQVLEARQSGPTCNTPSNRACWTNGFDINTDYEVSTPNTGRTVAYQLTLTEKENWIGPDGVLKNVVMLVNDKIIGPTIRANWGDNIEVTVINNLKTNGTSMHWHGLRQLGNVFNDGANGVTECPIPPKGGRKTYKFRATQYGTSWYHSHFSAQYGNGVVGTIQIDGPASLPYDIDLGVFPLMDYYYRSADELVHFTQSNGAPPSDNVLFNGTARHPETGAGQWYNVTLTPGKRHRLRIINTSTDNHFQVSLVGHNMTVIATDMVPVNAFTVSSLFLAVGQRYDVTIDANSPVGNYWFNVTFGDGLCGSSNNKFPAAIFRYQGAPATLPTDQGLPVPNHMCLDNLNLTPVVTRSAPVNNFVKRPSNTLGVTLDIGGTPLFVWKVNGSAINVDWGKPILDYVMSGNTSYPVSDNIVQVDAVDQWTYWLIENDPTNPIVSLPHPMHLHGHDFLVLGRSPDELPSAGVRHIFDPAKDLPRLKGNNPVRRDVTMLPAGGWLLLAFKTDNPGAWLFHCHIAWHVSGGLSVDFLERPNDLRTQLNSNAKRADRDDFNRVCREWNAYWPTNPFPKIDSGLRHRFVEESEWMVR
# modifications: Thielavia arenaria ALKO4197; (1)..(617) Deduced amino acid sequence of Thielavia arenaria ALKO4197 laccase 1 (Ta Lcc1)
# Columns and labels:
# [1] = Specific activity on guaiacol; assay type: biochemical; details: 25 mM MES buffer, pH 5.5
# Method: (§1) Specific activities of the purified Thielavia laccase were determined towards different laccase substrates.
# [2] = Stain removal with laccases, tea; details: 60 min, pH 6
# Method: (§2) The TaLcc1 (RF5598) and Denilite II Base laccase preparations were tested for their ability to remove stains. The following artificially soiled test cloths were used: grass soiling (Art. 164, EMPA Testmaterialen, Germany), tea soiling (Art. 167, EMPA Testmaterialen, Germany). The fabric was cut in 5.8×5.8 cm swatches. Laccase treatments were performed in LP-2 Launder Ometer as follows. About 5 g of soiled fabrics were loaded into 1.2 liter containers containing 150 ml Mc Ilvaine's citrate phosphate buffer pH 6 and the containers were temperated. Enzymes with or without the mediator (methyl syringate, DeniLite II Assist, Novozymes) were dosed as laccase activity units (Example 7). Enzyme dosage was 200 nkat/g and mediator dosage 10 mg/g of the weight of fabric, except at 40° C. also dosages of 20 nkat/g and 2 mg/g were used. The Launder Ometer was run at 40, 50 or 60° C. and pH 6 for 60 min. After that the swatches were carefully rinsed under running water and in shake flasks containing warm water and dried in the air.
# (§3) The stain removal effect was evaluated by measuring the colour as reflectance values using L*a*b* color space coordinates (Example 7). The colour of the swatches was measured before and after the laccase treatment.
# [3] = Specific activity on ABTS; assay type: biochemical; details: 25 mM succinate buffer pH 4.5, 25° C.
# Method: The activity assay was carried out in accordance with the method developed by Niku-Paavola et al. (1988). The sample was diluted with 0.025 M succinate buffer, pH 4.5. […] The activity is expressed as nano katals.
# as §1
# Specific activity on DMP = assay type: biochemical; details: 25 mM MES buffer, pH 5.5
# Method: as §1
# [4] = Denim bleaching at different pH-values (Launder Ometer); details: 50° C.; for Increase of L* / L* after laccase treatment / b* after laccase treatment: 200 nkat/g, 30 min
# Method: Lee Cooper jeans (Hamilton, 111-1060-55522-65, MASI Company Oy, Finland, former name M.A.S.I. jeans Oy) that were made of ring spun yarn in warp and open-end yarn in weft and were previously desized and treated with neutral ECOSTONE® cellulase were used as a test material. Laccase treatments were performed in LP-2 Launder Ometer as follows. About 10 g of denim swatches (15×14 cm) were loaded into 1.2 liter containers containing 200 ml Mc Ilvaine's citrate phosphate buffer pH 5, 6 or 7 and the containers were temperated. Enzyme with or without the mediator (methyl syringate, DeniLite II Assist, Novozymes) was added. Enzyme was dosed 200 nkat/g and the mediator 10 mg/g on the weight of fabric. […] The Launder Ometer was run at 50° C. for 30 min and after that the temperature in Launder was raised to 80° C. for 10 min. The swatches were rinsed carefully with warm water, dried half-dry in a tumbler and after that air dried.
# The bleaching effect was evaluated by measuring the colour as reflectance values with the Minolta Spectrophotometer CM 1000 (Minolta Co.) using L*a*b* color space coordinates (illuminant D65/2°). The colour from both sides of the swatches was measured before and after the laccase treatment. Each measurement was the average of several, at least ten, measurements.
# [5] = Redox potential, Pt-AgCl/KCl microelectrode; assay type: physicochemical; details: pH 5.0
# Method: The purified recombinant Thielavia arenaria TaLcc1 was characterized in terms of pH optimum, thermal stability, and pI as described in Example 2. The molecular weight was determined by MALDI-TOF mass spectrometry on a Ultraflex™ time-of-flight instrument (BrukerDaltonics, Germany) as previously described (Palonen et al., 2003). The redox potential of TaLcc1 was also determined with a combined Pt-AgCl/KCl microelectrode at pH 5.0 according to Sigoillot et al (2004)
# [6] = Stain removal with laccases, grass; details: 60 min, pH 6
# Method: as §2, §3
# [7] = Specific activity on syringaldazine; assay type: biochemical; details: 25 mM MES buffer, pH 5.5
# Method: as §1
# [8] = 20 nkat/g, mediator 2 mg/g, 40° C.
# [9] = 200 nkat/g, mediator 0 mg/g, 40° C.
# [10] = 200 nkat/g, mediator 0 mg/g, 60° C.
# [11] = 200 nkat/g, mediator 10 mg/g, 40° C.
# [12] = 200 nkat/g, mediator 10 mg/g, 50° C.
# [13] = 200 nkat/g, mediator 10 mg/g, 60° C.
molecule,measurement,setting,value
B1,Specific activity on guaiacol,[1],61 nkat/mg
same,Tea L*,[2]; [8],77.17
same,Tea a*,[2]; [8],4.65
same,Tea b*,[2]; [8],24.40
same,Tea L*,[2]; [9],75.99
same,Tea a*,[2]; [9],5.59
same,Tea b*,[2]; [9],23.54
same,Tea L*,[2]; [10],76.98
same,Tea a*,[2]; [10],4.98
same,Tea b*,[2]; [10],21.20
same,Tea L*,[2]; [11],78.77
same,Tea a*,[2]; [11],3.93
same,Tea b*,[2]; [11],24.97
same,Tea L*,[2]; [12],79.52
same,Tea a*,[2]; [12],3.45
same,Tea b*,[2]; [12],23.74
same,Tea L*,[2]; [13],81.69
same,Tea a*,[2]; [13],2.91
same,Tea b*,[2]; [13],22.29
same,Specific activity on ABTS,[3],910 nkat/mg
same,Specific activity on DMP,Specific activity on DMP,285 nkat/mg
same,Increase of L*,"[4]; mediator 0 mg/g, pH 5",0.14
same,L* after laccase treatment,"[4]; mediator 0 mg/g, pH 5",28.22
same,b* after laccase treatment,"[4]; mediator 0 mg/g, pH 5",−18.35
same,Increase of L*,"[4]; mediator 0 mg/g, pH 6",0.82
same,L* after laccase treatment,"[4]; mediator 0 mg/g, pH 6",29.58
same,b* after laccase treatment,"[4]; mediator 0 mg/g, pH 6",−18.38
same,Increase of L*,"[4]; mediator 0 mg/g, pH 7",0.37
same,L* after laccase treatment,"[4]; mediator 0 mg/g, pH 7",27.80
same,b* after laccase treatment,"[4]; mediator 0 mg/g, pH 7",−18.50
same,Increase of L*,"[4]; mediator 10 mg/g, pH 5",13.52
same,L* after laccase treatment,"[4]; mediator 10 mg/g, pH 5",42.04
same,b* after laccase treatment,"[4]; mediator 10 mg/g, pH 5",−14.78
same,Increase of L*,"[4]; mediator 10 mg/g, pH 6",21.19
same,L* after laccase treatment,"[4]; mediator 10 mg/g, pH 6",48.97
same,b* after laccase treatment,"[4]; mediator 10 mg/g, pH 6",−12.36
same,Increase of L*,"[4]; mediator 10 mg/g, pH 7",16.92
same,L* after laccase treatment,"[4]; mediator 10 mg/g, pH 7",44.71
same,b* after laccase treatment,"[4]; mediator 10 mg/g, pH 7",−14.43
same,optimum pH in denim bleaching,[4]; pH 5 to 7 tested,6
same,E^0,[5],560 mV
same,Grass L*,[6]; [8],80.16
same,Grass a*,[6]; [8],−0.73
same,Grass b*,[6]; [8],16.20
same,Grass L*,[6]; [9],80.25
same,Grass a*,[6]; [9],−4.22
same,Grass b*,[6]; [9],17.41
same,Grass L*,[6]; [10],79.38
same,Grass a*,[6]; [10],−4.19
same,Grass b*,[6]; [10],17.77
same,Grass L*,[6]; [11],80.34
same,Grass a*,[6]; [11],0.47
same,Grass b*,[6]; [11],16.51
same,Grass L*,[6]; [12],80.60
same,Grass a*,[6]; [12],−0.18
same,Grass b*,[6]; [12],17.65
same,Grass L*,[6]; [13],80.6
same,Grass a*,[6]; [13],0.02
same,Grass b*,[6]; [13],18.71
same,Specific activity on syringaldazine,[7],340 nkat/mg
